{"source": "patent US20230416402A1", "about": "(DRAGONFLY THERAPEUTICS, published 2023)", "molecular_target": "HER2 (human, UniProt P04626 23-1255)", "assay": "cell-based or functional assay", "data": [{"binder": "A49-F3′-TriNKET-Trastuzumab (bispecific antibody, human IgG1) heavy: EVQLVESGGGLVKPGGSLRLSCAASGFTFSSYSMNWVRQAPGKGLEWVSSISSSSSYIYYADSVKGRFTISRDNAKNSLYLQMNSLRAEDTAVYYCARGAPMGAAAGWFDPWGQGTLVTVSSASTKGPSVFPLAPSSKSTSGGTAALGCLVKDYFPEPVTVSWNSGALTSGVHTFPAVLQSSGLYSLSSVVTVPSSSLGTQTYICNVNHKPSNTKVDKKVEPKSCDKTHTCPPCPAPELLGGPSVFLFPPKPKDTLMISRTPEVTCVVVDVSHEDPEVKFNWYVDGVEVHNAKTKPREEQYNSTYRVVSVLTVLHQDWLNGKEYKCKVSNKALPAPIEKTISKAKGQPREPQVCTLPPSRDELTENQVSLTCLVKGFYPSDIAVEWESNGQPENNYKTTPPVLDSDGSFFLYSWLTVDKSRWQQGNVFSCSVMHEALHNHYTQKSLSLSPG not shown light: DIQMTQSPSSVSASVGDRVTITCRASQGISSWLAWYQQKPGKAPKLLIYAASSLQSGVPSRFSGSGSGTDFTLTISSLQPEDFATYYCQQGVSFPRTFGGGTKVEIKRTVAAPSPPSDEQLKSGTASVVCLLNNFYPREAKVQWKVDNALQSGNSQESVTEQDSKDSTYSLSSTLTLSKADYEKHKVYACEVTHQGLSSPVTKSFNRGEC", "values": [{"measurement": "EC50 in KHYG-1-CD16V cell killing of Hs578T cells (DELFIA cytotoxicity assay)", "value": 0.376, "unit": "nM"}, {"measurement": "EC50 in KHYG-1-CD16V cell-mediated cytolysis of BT-20 cells (DELFIA cytotoxicity assay)", "value": 1.16, "unit": "nM"}, {"measurement": "EC50 in NK cell-mediated killing of MCF-7 cells (DELFIA cytotoxicity assay)", "value": 0.878, "unit": "nM"}, {"measurement": "EC50 in NK cell-mediated lysis of ZR75-1 cells (DELFIA cytotoxicity assay)", "value": 0.043, "unit": "nM"}, {"measurement": "EC50 in enhancing NK cell-mediated cytolysis of SKBR-3 cells (DELFIA cytotoxicity assay, 3 healthy donors)", "value": 0.008, "unit": "nM"}, {"measurement": "EC50 in inducing NK cell-mediated lysis of 786-0 cells (DELFIA cytotoxicity assay)", "value": 0.638, "unit": "nM"}, {"measurement": "EC50 in triggering NK cell-mediated killing of H661 cells (DELFIA cytotoxicity assay)", "value": 0.054, "unit": "nM"}, {"measurement": "fold higher potency than trastuzumab in triggering NK cell-mediated killing of SKBR-3 cells", "value": 2.5, "unit": "fold"}]}]}
